US20170137467A1 (CHROMOTEK, published 2017)

Experiments:
Assay in all cases: peptide library pulldown on immobilized Nb, LC-MS of supernatant; ratio vs GFP-Nb control (1 = not captured, 0 = captured)
BC2T S8R library peptide = molecular target: T1, BC2T S8R library peptide (human)
T1 construct: also called BC2TS8X: R
T1 peptide: Ac-PDRKAAVRHWQQ-NH2
How it was run: (§1)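 Unbound peptide left in supernatant after 1 h pulldown in PBS/0.01% CHAPS measured by reversed-phase LC-MS (8–30% eluent B gradient, 20 min).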

BC2T S8D library peptide = molecular target: T2, BC2T S8D library peptide (human)
T2 construct: also called BC2TS8X: D
T2 peptide: Ac-PDRKAAVDHWQQ-NH2
How it was run: as §1

BC2T S8Q library peptide = molecular target: T3, BC2T S8Q library peptide (human)
T3 construct: also called BC2TS8X: Q
T3 peptide: Ac-PDRKAAVQHWQQ-NH2
How it was run: as §1

[1] = molecular target: T4, BC2T S8(I/L) library peptide, version 1 (N-terminal acetyl, C-terminal amide)
T4 construct: Ile and Leu versions are isobaric; two versions resolved but not assigned; also called BC2TS8X: I/L1
How it was run: as §1

BC2T H9F library peptide = molecular target: T5, BC2T H9F library peptide (human)
T5 peptide: Ac-PDRKAAVSFWQQ-NH2
How it was run: as §1

[2] = molecular target: T6, BC2T W10(I/L) library peptide, version 1 (N-terminal acetyl, C-terminal amide)
T6 construct: Ile and Leu versions are isobaric; two versions resolved but not assigned; also called BC2TW10X: I/L1
How it was run: as §1

[3] = molecular target: T7, BC2T Q11K library peptide (human)
T7 peptide: Ac-PDRKAAVSHWKQ-NH2
How it was run: as §1

[4] = molecular target: T8, BC2T W10E library peptide (human)
T8 construct: also called BC2TW10X: E
T8 peptide: Ac-PDRKAAVSHEQQ-NH2
How it was run: as §1

BC2T S8Y library peptide = molecular target: T9, BC2T S8Y library peptide (human)
T9 construct: also called BC2TS8X: Y
T9 peptide: Ac-PDRKAAVYHWQQ-NH2
How it was run: as §1

[5] = molecular target: T10, BC2T Q11A library peptide (human)
T10 peptide: Ac-PDRKAAVSHWAQ-NH2
How it was run: as §1

[6] = molecular target: T11, BC2T W10Y library peptide (human)
T11 construct: also called BC2TW10X: Y
T11 peptide: Ac-PDRKAAVSHYQQ-NH2
How it was run: as §1

[7] = molecular target: T12, BC2T W10K library peptide (human)
T12 construct: also called BC2TW10X: K
T12 peptide: Ac-PDRKAAVSHKQQ-NH2
How it was run: as §1

[8] = molecular target: T13, BC2T Q11R library peptide (human)
T13 peptide: Ac-PDRKAAVSHWRQ-NH2
How it was run: as §1

[9] = molecular target: T14, BC2T Q12(I/L) library peptide, version 2 (N-terminal acetyl, C-terminal amide)
T14 construct: Ile and Leu versions are isobaric; two versions resolved but not assigned; also called I/L2
How it was run: as §1

BC2T H9K library peptide = molecular target: T15, BC2T H9K library peptide (human)
T15 peptide: Ac-PDRKAAVSKWQQ-NH2
How it was run: as §1

[10] = molecular target: T16, BC2T H9(I/L) library peptide, version 2 (N-terminal acetyl, C-terminal amide)
T16 construct: Ile and Leu versions are isobaric; two versions resolved but not assigned; also called I/L2
How it was run: as §1

BC2T S8A library peptide = molecular target: T17, BC2T S8A library peptide (human)
T17 construct: also called BC2TS8X: A
T17 peptide: Ac-PDRKAAVAHWQQ-NH2
How it was run: as §1

[11] = molecular target: T18, BC2T W10Q library peptide (human)
T18 construct: also called BC2TW10X: Q
T18 peptide: Ac-PDRKAAVSHQQQ-NH2
How it was run: as §1

BC2T H9D library peptide = molecular target: T19, BC2T H9D library peptide (human)
T19 peptide: Ac-PDRKAAVSDWQQ-NH2
How it was run: as §1

ratio (BC2T S8R library peptide): 0.9 | ratio (BC2T S8D library peptide): 1 | ratio (BC2T S8Q library peptide): 0.9 | ratio [1]: 0.5 | ratio (BC2T H9F library peptide): 0.2 | ratio [2]: 1 | ratio [3]: 0.1 | ratio [4]: 1.2 | ratio (BC2T S8Y library peptide): 0.9 | ratio [5]: 0.3 | ratio [6]: 1 | ratio [7]: 1.3 | ratio [8]: 0.1 | ratio [9]: 0.1 | ratio (BC2T H9K library peptide): 0.2 | ratio [10]: 0.2 | ratio (BC2T S8A library peptide): 0.1 | ratio [11]: 1.2 | ratio (BC2T H9D library peptide): 0.4
B1: BC2-Nb(R106E) (VHH)
VHH: QVQLVESGGGLVQPGGSLTLSCTASGFTLDHYDIGWFRQAPGKEREGVSCINNSDDDTYYADSVKGRFTIFMDNAKDTVYLQMNSLKPEDTAIYYCAEARGCKRGEYEYDFWGQGTQVTVSS
notes: Headlock mutant; immobilized on beads in the library pulldown
